Data: patent US20170240596A1
No end group written: not given here.

Target: Prostate-specific membrane antigen (PSMA) (human), Q04609
Experiment: apparent Kd, flow cytometry, FAM-labeled peptide on PSMA-positive LNCaP cells, 4 C
Conditions: remark: other sources report otherwise

Prostate-specific membrane antigen (PSMA) (human), Q04609, sequence (Q04609 whole entry): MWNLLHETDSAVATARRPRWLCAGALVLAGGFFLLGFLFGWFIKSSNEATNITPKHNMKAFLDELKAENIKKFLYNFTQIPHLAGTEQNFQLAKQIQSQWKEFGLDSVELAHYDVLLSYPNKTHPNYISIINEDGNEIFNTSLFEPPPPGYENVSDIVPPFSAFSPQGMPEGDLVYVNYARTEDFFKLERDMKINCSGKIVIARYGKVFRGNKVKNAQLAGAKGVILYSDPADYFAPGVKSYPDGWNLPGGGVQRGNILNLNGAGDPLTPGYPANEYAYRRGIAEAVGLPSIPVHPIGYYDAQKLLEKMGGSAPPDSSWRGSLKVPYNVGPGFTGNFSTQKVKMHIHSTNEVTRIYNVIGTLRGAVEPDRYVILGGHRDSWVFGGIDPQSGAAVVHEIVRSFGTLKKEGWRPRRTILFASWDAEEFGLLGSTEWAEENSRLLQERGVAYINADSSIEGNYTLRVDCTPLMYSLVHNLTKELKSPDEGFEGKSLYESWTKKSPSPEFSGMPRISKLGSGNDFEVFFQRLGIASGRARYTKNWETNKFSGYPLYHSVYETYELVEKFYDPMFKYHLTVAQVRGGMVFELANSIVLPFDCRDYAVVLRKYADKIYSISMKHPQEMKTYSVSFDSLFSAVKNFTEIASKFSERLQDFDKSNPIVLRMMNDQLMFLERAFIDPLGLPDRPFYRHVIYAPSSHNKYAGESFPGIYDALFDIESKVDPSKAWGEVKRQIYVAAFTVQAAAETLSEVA

- Kd: 23.6 µM
Binder: WQPDTAHHWATL (also: FAM label, position not given here) [FAM-labeled WQP peptide …]
